Measurements: US9012186B2, “Hemicellulose-degrading enzymes” (The Board of Trustees of the University of Illinois, priority 2009, dated 2015)
Positions count from the first letter of the chain named. Numbers in names are those of the source.

Key:
Format in all cases: biochemical, Prevotella bryantii
[1] = substrate: O=[N+]([O-])c1ccc(O[C@@H]2OC[C@@H](O)[C@H](O)[C@H]2O)cc1; experiment: Steady state kinetics of pNP substrate hydrolysis, Pb911 WT; settings: other: Pb911 WT, pNP assay per Example 2 (sodium citrate, pH 5.5, 37° C.)
Procedure: (§1) Enzyme-catalyzed hydrolysis of para-nitrophenyl (pNP)-linked monosaccharide substrates was assayed using a thermostated Synergy II multi-mode microplate reader from BioTek Instruments Inc. (Winooski, Vt.). A library of pNP substrates were screened for activity including: pNP-α-L-arabinopyranoside, pNP-α-L-arabinofuranoside, pNP-β-D-fucopyranoside, pNP-α-L-fucopyranoside, pNP-α-D-galactopyranoside, pNP-β-D-galactopyranoside, pNP-α-D-glucopyranoside, pNP-β-D-glucopyranoside, pNP-β-D-maltopyranoside, pNP-α-D-maltopyranoside, pNP-α-D-mannopyranoside, pNP-β-D-mannopyranoside, pNP-α-L-rhamnopyranoside, pNP-β-D-xylopyranoside, pNP-β-D-cellobioside. The substrates (1 mM) in citrate buffer (100 μL; 50 mM sodium citrate, 150 mM NaCl, pH 5.5) were incubated at 37° C. in the presence or absence of Pb886 (0.2 μM) for 30 min, and the level of pNP release was determined by continuously monitoring the absorbance at 400 nm. The pathlength correction feature of the instrument was employed to convert the absorbance values recorded to correspond to a 1 cm pathlength. The extinction coefficient for pNP at pH 5.5 and a wavelength of 400 nm was measured as 0.673 mM^−1cm^−1.
(§2) FIG. 4c illustrates the kinetics of pNP substrate hydrolysis. The activity of Pb886 was verified with para-nitrophenyl derivatives of xylose and arabinose as indicated in the x-axes. These substrates are artificial substrates for the enzyme. Kinetic studies of Pb886 were performed using a thermostated Synergy II multi-mode microplate reader from BioTek Instruments Inc. (Winooski, Vt.). pNP-β-D-Xylopyranoside (0-46.25 mM) or pNP-α-L-arabinofuranoside (0-25 mM) were incubated in a citrate reaction buffer (100 μL; 50 mM sodium citrate, 150 mM NaCl, pH 5.5) at 37° C. in a 96-well flat bottom microtiter plate, and reactions were initiated by the addition of Pb886 (0.2 μM). Hydrolysis of pNP-β-D-xylopyranoside and pNP-α-L-arabinofuranoside were continuously monitored by recording the UV signal at 400 nm. Initial rate data were then plotted against the substrate concentration, and kinetic values were estimated by applying a nonlinear curve fit using GraphPad Prism v5.02 from GraphPad Software (San Diego, Calif.). The extinction coefficient for para-nitrophenol at pH 5.5 and a wavelength of 400 nm was measured as 0.673 mM^−1cm^−1.
(§3) Pb911 protein was expressed and purified according to the methods described in Example 1. […] The activity of Pb911 on pNP substrates was measured according to the methods described in Example 2.

[2] = substrate: O=[N+]([O-])c1ccc(O[C@@H]2O[C@H](CO)[C@@H](O)[C@H](O)[C@H]2O)cc1; experiment: as above; settings: other: Pb911 WT, pNP assay per Example 2 (sodium citrate, pH 5.5, 37° C.)
Procedure: as §1, §2, §3

[3] = substrate: O=[N+]([O-])c1ccc(O[C@@H]2OC[C@@H](O)[C@H](O)[C@H]2O)cc1; experiment: Steady state kinetics of pNP substrate hydrolysis, Pb911 E115A; settings: other: Pb911 E115A, pNP assay per Example 2 (sodium citrate, pH 5.5, 37° C.)
Procedure: as §1, §2, §3

[4] = substrate: O=[N+]([O-])c1ccc(O[C@@H]2O[C@H](CO)[C@@H](O)[C@H](O)[C@H]2O)cc1; experiment: as above; settings: other: Pb911 E115A, pNP assay per Example 2 (sodium citrate, pH 5.5, 37° C.)
Procedure: as §1, §2, §3

[5] = substrate: O=[N+]([O-])c1ccc(O[C@@H]2OC[C@@H](O)[C@H](O)[C@H]2O)cc1; experiment: Steady state kinetics of pNP substrate hydrolysis, Pb911 E115D; settings: other: Pb911 E115D, pNP assay per Example 2 (sodium citrate, pH 5.5, 37° C.)
Procedure: as §1, §2, §3

[6] = substrate: O=[N+]([O-])c1ccc(O[C@@H]2O[C@H](CO)[C@@H](O)[C@H](O)[C@H]2O)cc1; experiment: as above; settings: other: Pb911 E115D, pNP assay per Example 2 (sodium citrate, pH 5.5, 37° C.)
Procedure: as §1, §2, §3

B1: Prevotella bryantii β-xylosidase/β-glucosidase Pb911 (alternatively named Pb2369), wild type, SEQ ID NO: 6 (Segatella baroniae B14) (protein)
chain: QTILINQQVDALYDRMSQEERINQLRSGYMDDLFDEQGNLDTVKCKELIPFGIGHFSQYASQKPLDANILRDRVAAVQDWLIHHTPNGIPALFHEEVLSGVNTKDATIYPQQIGQACSFNPELAERKTLQTGIDMRKMGGVLSLSPMVDVCRNPSFNRLEESYGEDGYLSAVMGTAFVKGLQQGDLTKGVGACSKHYLGYGGGGDAKEKEMMEEILLPHETMIRLAGSKALMPGYHAVHGTNCVANHEILTDILRGYLGFDGMVVSDYTAIDQIPGLDTPLQKATAAINAGNDVDFPHGANYKFLQEGLDKGMVKSEAFERAVKDVLRHKYRQGLFDKNAYLYSKDPIQLDSKEERQTAYDIATQSVVLLENKGILPLRGKQNIFVTGPNANTMWAMCGDYSFPAMTYFWKKVTEDLDHPHIVKLLEGMKDRKPAGINISYSRGCDWTDTIETKYAVSGDERAWEYEVLHRKVDSGEKADETEALAMAKEADVIIAAVGENVMLCGENRDRQGLCLPGHQEQYVERLLATGKPVVLVVFGGRAQVISNIANRCAAVIQAWYPGEEGGHAVADILYGNVSPSAKLSVSYPNVELNEPICYNYSAKQDSRVAWPFGYGLSYTTFDYSNLEVPTEVKTSDESLHIAFEVANTGKMDADEIAQVYLSPTQENQNIRPIQLQGFARISLKAGERKKVKVKLYTEQFGYYSNNGKRQWNIAPGTFTVKIGASSQDIKLQKNITVKGDIVVKPLRDFYFSEVIK
Work on B1 yielded a Km [1] of 8.4 ± 1 mM, a kcat [1] of 250 ± 10 s⁻¹ and a kcat/Km [1] of 30000 ± 4000 M⁻¹ s⁻¹. For the same protein, the Km [2] was 22 ± 1 mM, the kcat [2] was 19 ± 0.6 s⁻¹ and the kcat/Km [2] was 860 ± 50 M⁻¹ s⁻¹.

B2: Prevotella bryantii β-xylosidase/β-glucosidase Pb911 (alternatively named Pb2369, wild type SEQ ID NO: 6) variant E115A (Segatella baroniae B14; E115A) (protein)
chain: B1 chain with E96A
For B2, the Km [3] was 28 ± 3 mM, the kcat [3] was 0.35 ± 0.02 s⁻¹ and the kcat/Km [3] was 13 ± 2 M⁻¹ s⁻¹. The Km [4] was 39 ± 4 mM, the kcat [4] was 0.087 ± 0.005 s⁻¹ and the kcat/Km [4] was 2.2 ± 0.3 M⁻¹ s⁻¹.

B3: Prevotella bryantii β-xylosidase/β-glucosidase Pb911 (alternatively named Pb2369, wild type SEQ ID NO: 6) variant E115D (Segatella baroniae B14; E115D) (protein)
chain: B1 chain with E96D
With B3 the Km [5] was 39 ± 4 mM, the kcat [5] was 87 ± 5 s⁻¹ and the kcat/Km [5] was 2200 ± 200 M⁻¹ s⁻¹. It also gave a Km [6] of 17 ± 1 mM, a kcat [6] of 16 ± 0.4 s⁻¹ and a kcat/Km [6] of 940 ± 60 M⁻¹ s⁻¹.
